We go through one molecule from patent US10138280B2, “Polypeptides targeting glycosylated MUC2 proteins, methods of synthesis, their nucleic acids and uses thereof” (INSTITUT PASTEUR, priority 2011, dated 2018).

One data set deals with rabbit ileal mucus. Kind of data set: Mucus staining on fixed tissues, rabbit ileum. Particulars: fixed tissue, 1 μg/mL. How it is done:
(§1) FIGS. 8A-8D. (FIG. 8A) Cell toxicity of Cy5-MUB70 tested on HT-29-MTX and Hela epithelial cells. Cell survival was assessed using Sytoxgreen dye on cultures exposed to 1 μg/mL Cy5-MUB70 from 0 to 10 h, as indicated. NS indicates P>0.05 (Student's T-test). (FIG. 8B) Rabbit colonic and ileal mucus staining on fixed tissues (PFA 4%), using Cy5-MUB70 (1 μg/mL) (blue). Actin is stained in red (Phall.-RRX). Bar is 50 μm. (FIG. 8C) Human ex vivo colon sample was incubated for 2 h with 1 μg/mL Cy5-MUB70 in a serum-free media. Resulting fluorescent staining was assessed using a two-photons microscope (see Methods). Z-projection, performed using ImageJ software, allows 3D localization of Cy5-MUB70 fluorescence signal. Bar is 100 μm. Colon scheme: firmly (f) and loosely (I) attached colonic mucus layers are represented at the surface of the epithelium (e). (FIG. 8D) Kinetics of colonic mucus with Cy5-MUB70. […] Human tissue autofluorescence is detected in the same red channel as Cy5.
FIGS. 11A-11C. Mucus staining using Cy5-MUB70 on fixed tissues. (FIG. 11A) Guinea pig colon, (FIG. 11B) rabbit ileum and (FIG. 11C) mouse colon were fixed in PFA 4%. Immunofluorescent staining was performed using Cy5-MUB70 (1 μg/mL) (blue). Actin is stained in red (Phall.-RRX), Muc2 is stained in green (α-Muc2). Observations were performed using a confocal microscope. Bar is 50 μm. […]

Data set [1] has as its system mucus layer of differentiated HT-29 MTX human epithelial colonic cells. Kind of data set: Staining of living HT-29 MTX cells, epifluorescent microscope. Format: cell-based. Particulars: living differentiated HT-29 MTX; 1 μg/mL, 2 h, serum-free media. The procedure: FIGS. 3A-3B. Cy5-MUB70 colonic mucus binding property. (FIG. 3A) HT-29 MTX living cells were incubated for 2 h with Cy5-MUB70 in a serum-free media. The resulting fluorescent signal (red) was visualized at the surface of the cell layer using an epifluorescent microscope. Z-projection, performed using ImageJ software, allowed 3D localization of Cy5-MUB70 fluorescence signal in the mucus layer. Bar is 10 μm (FIG. 3B) MPE and SHG imaging of the binding of Cy5-MUB70 to the human colonic mucus. […] Human tissue autofluorescence is detected in the same red channel as Cy5.
For dot blot assay, goat α-MUC2 pAbs (sc-13312, Santa Cruz), mouse α-MUC5ac (Abcam), mouse α-MUC5b mAbs (Abcam), mouse α-MUC6 mAbs (sc-33668, Santa Cruz), mouse α-lactoferrin mAbs (sc-52048, Santa Cruz) and rabbit α-FCGBP pAbs (Sigma-Aldrich) antibodies were used at a 1:100 dilution. Corresponding HRP-Conjugated antibodies were used at a 1:1000 dilution. For staining living HT-29 MTX cells and on human colon ex vivo model, Cy5-MUB70 was incubated (1 μg/mL) in a serum starved culture medium (DMEM and RPMI respectively) for two hours at 37° C. prior observation.
Fluorescent labeled tissues and cells were observed using a widefield epifluorescent microscope (Zeiss Definite Focus), laser-scanning confocal microscope (Leica TCS SP5) or a two-photons confocal microscope (Zeiss LSM710), as indicated. […]

The next data set concerns Hela cells. Kind of data set: Cell toxicity, Sytox Green assay. The format is cell-based, human. Particulars: 1 μg/mL, up to 10 h, serum starved media, Student test NS, p>0.05, n=3. The procedure: as §1, with “signal.” for “signal. Bar is 100 μm. Colon scheme: firmly (f) and loosely (I) attached colonic mucus layers are represented at the surface of the epithelium (e). (FIG. 8D) Kinetics of colonic mucus with Cy5-MUB70.”
(§2) Hela cells were grown in DMEM medium supplemental with 10% FCS. […] Cell viability was determined by staining with Sytox Green (Invitrogen) as described by the manufacturer. […] Fluorescence was measured using a FACS flow cytometer (BD systems) recording at least 10,000 events. Data were analysed with CellQuest Pro software (BD Biosciences), and expressed as percentage survival.
(§3) As Cy5-MUB70 was envisaged to be used on living cells and organs, its cell-toxicity has been evaluated. This probe was incubated on differentiated HT-29 MTX and on Hela cells as cell viability was assessed using a Sytox Green assay (see Methods).

In another data set the test system is HT-29 MTX cells. Kind of data set: Cell toxicity, Sytox Green assay. Format: cell-based, human. To be noted: differentiated HT-29 MTX; 1 μg/mL, up to 10 h, serum starved media; Student test NS, p>0.05, n=3. The procedure:
as §1, with “signal.” for “signal. Bar is 100 μm. Colon scheme: firmly (f) and loosely (I) attached colonic mucus layers are represented at the surface of the epithelium (e). (FIG. 8D) Kinetics of colonic mucus with Cy5-MUB70.”
as §2, §3

B1: Cy5-MUB70: Cy5-labelled MUB70 polypeptide, labelled via Cy5 maleimide on N-terminal cysteine (conjugate)
peptide: CVHVQYIDGETDQMLRQDDLDGYTDETIPYSTAEGIKKFEGDGYELFKDNFPAGEKFDNDDTNDQFYTVIF
On to B1, for which, in the data set with rabbit ileal mucus, the ileal mucus staining entry is “negative results”. The “mucus layer binding on living cells” value in data set [1] is given as “binding the mucus layer at the surface of the cells”. The cell viability entry in the data set on Hela cells and in the data set with HT-29 MTX cells was “do not affect significantly cell viability” in each case.
